Source: patent publication EP4722228A1 (The University of Tokyo, dated 2024)
Bridge positions count the residues as written; N and C are the ends. Square brackets hold non-standard residues; d marks the D form. Ends that are not written are not given here.

Tests used:
[1] = molecular target: T1, Recombinant Rat MuSK Fc Chimera Protein (catalog number: 9847-MK-050, R&D Systems) (rat, UniProt Q62838 22-494); assay: SPR (Biacore T200), Fc-tagged rat MuSK on Protein G/A chip, 1:1 fit
T1 construct: Bought reagent; also called Fc-tagged rat MuSK; not shown: Fc protein of the bought chimera
T1 sequence (looked up): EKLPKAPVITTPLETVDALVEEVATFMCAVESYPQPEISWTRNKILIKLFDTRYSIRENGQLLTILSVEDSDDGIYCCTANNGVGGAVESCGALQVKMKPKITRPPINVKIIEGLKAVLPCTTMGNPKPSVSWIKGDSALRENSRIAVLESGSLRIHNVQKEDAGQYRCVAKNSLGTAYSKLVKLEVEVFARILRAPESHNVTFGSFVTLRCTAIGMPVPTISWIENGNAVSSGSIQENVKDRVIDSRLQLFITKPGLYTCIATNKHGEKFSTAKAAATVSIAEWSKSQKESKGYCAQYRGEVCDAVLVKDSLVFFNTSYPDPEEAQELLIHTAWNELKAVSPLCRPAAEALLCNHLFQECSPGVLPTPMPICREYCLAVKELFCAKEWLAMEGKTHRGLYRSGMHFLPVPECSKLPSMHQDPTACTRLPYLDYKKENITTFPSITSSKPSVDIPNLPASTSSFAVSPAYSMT

[2] = molecular target: Fc-tagged mouse MuSK extracellular domain (mouse); assay: SPR (Biacore T200), Fc-tagged mouse MuSK on Protein G/A chip, 1:1 fit
Fc-tagged mouse MuSK extracellular domain (mouse), sequence (chain, as listed by the source limits assumed): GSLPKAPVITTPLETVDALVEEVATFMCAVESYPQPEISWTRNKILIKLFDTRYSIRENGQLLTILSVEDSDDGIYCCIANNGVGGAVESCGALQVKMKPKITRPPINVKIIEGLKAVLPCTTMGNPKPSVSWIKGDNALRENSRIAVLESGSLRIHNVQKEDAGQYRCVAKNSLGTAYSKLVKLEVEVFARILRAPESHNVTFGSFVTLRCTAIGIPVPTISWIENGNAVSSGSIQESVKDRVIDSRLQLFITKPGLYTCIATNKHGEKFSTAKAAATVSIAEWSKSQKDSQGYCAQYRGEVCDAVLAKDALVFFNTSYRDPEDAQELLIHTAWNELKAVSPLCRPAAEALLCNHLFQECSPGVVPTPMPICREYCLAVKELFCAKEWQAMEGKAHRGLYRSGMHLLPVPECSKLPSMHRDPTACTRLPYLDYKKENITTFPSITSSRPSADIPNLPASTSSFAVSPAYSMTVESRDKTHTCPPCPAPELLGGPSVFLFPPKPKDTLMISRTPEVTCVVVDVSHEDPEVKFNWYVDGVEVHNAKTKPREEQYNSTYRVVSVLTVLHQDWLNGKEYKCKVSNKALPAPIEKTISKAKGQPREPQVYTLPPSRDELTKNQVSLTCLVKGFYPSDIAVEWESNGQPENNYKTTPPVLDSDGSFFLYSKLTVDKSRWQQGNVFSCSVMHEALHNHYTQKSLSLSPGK

Kd [1]: 2 nM
Kd [2]: 8.8 nM
B1: Homodimer of MuSK7 with an introduced palmitoyl group (MuSK7-pal) (peptide)
peptide: {CH2CO}-[dY]PSYHTNVVASLKRC
modifications: thioether N-15; also: homodimer: two peptides condensed via C-terminal Cys carboxyl with linking unit bearing palmitic acid
notes: also called Dimeric peptide
